According to paper PMC7335780, “Role of folding kinetics of secondary structures in telomeric G-overhangs in the regulation of telomere maintenance in Saccharomyces cerevisiae”:

Assays:
[1] = biological target: T1, Cdc13-DBD (Saccharomyces cerevisiae (strain SCY325), UniProt P32797 497-694); assay: competition; competitor in water, 50 or 75 nM, vs 32P-ONG11; EMSA: 1x K+ buffer (20 mM potassium phosphate pH 7.0, 135 mM KCl, 9% glycerol), 10 min at 22 C/RT, 6% PAGE in 0.5x TBE; NMR in K+TD (K+ buffer + 0.25% Triton X-100, 1 mM DTT); conditions: protein: recombinant, tags: GST tag (pGEX-6T-2) removed with HRV 3C protease, vector-derived residues may remain, unfolded single strand
T1 sequence: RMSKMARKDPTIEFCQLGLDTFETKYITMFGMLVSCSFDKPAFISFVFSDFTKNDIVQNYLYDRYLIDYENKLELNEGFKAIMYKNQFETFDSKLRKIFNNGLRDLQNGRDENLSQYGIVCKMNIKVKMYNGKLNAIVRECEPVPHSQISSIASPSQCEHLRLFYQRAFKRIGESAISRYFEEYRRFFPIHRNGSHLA

[2] = biological target: T1, Cdc13-DBD; assay: EMSA; freshly boiled probe, protein titration; EMSA: 1x K+ buffer (20 mM potassium phosphate pH 7.0, 135 mM KCl, 9% glycerol), 10 min at 22 C/RT, 6% PAGE in 0.5x TBE; NMR in K+TD (K+ buffer + 0.25% Triton X-100, 1 mM DTT); conditions: protein: recombinant; tags: GST tag (pGEX-6T-2) removed with HRV 3C protease; vector-derived residues may remain; label: 5'-32P; single strand when freshly boiled; G-hairpin after long folding

B1: ONG1 unfolded (H2O) (ssDNA)
DNA: GTGTGGGTGTGGTGTGGGTGTGGTGTGGGTGTG
binding result ([1]; label: none): binds

B2: ONG11 5'-32P probe (ssDNA)
DNA: GTGTGGGTGTG
modifications: 5' phosphate
binding result [2]: binds

B3: ONG11 unfolded (H2O or freshly boiled) (ssDNA)
DNA: GTGTGGGTGTG
binding result [1]: binds
